In patent US7582460B2 (Wacker Chemie AG, priority 2003, dated 2009) one finds Activity and Ki data, which are given here for 18 molecules.

The chains are these.
B1: serA421: E. coli PGD variant with replacement G349N (protein, UniProt P0A9T0 2-410, looked up, variant G349N)
D-3-phosphoglycerate …: AKVSLEKDKIKFLLVEGVHQKALESLRAAGYTNIEFHKGALDDEQLKESIRDAHFIGLRSRTHLTEDVINAAEKLVAIGCFCIGTNQVDLDAAAKRGIPVFNAPFSNTRSVAELVIGELLLLLRGVPEANAKAHRGVWNKLAAGSFEARGKKLGIIGYGHIGTQLGILAESLGMYVYFYDIENKLPLGNATQVQHLSDLLNMSDVVSLHVPENPSTKNMMGAKEISLMKPGSLLINASRGTVVDIPALCDALASKHLAGAAIDVFPTEPATNSDPFTSPLCEFDNVLLTPHIGGSTQEAQENIGLEVAGKLIKYSDNGSTLSAVNFPEVSLPLHGGRRLMHIHENRPNVLTALNKIFAEQGVNIAAQYLQTSAQMGYVVIDIEADEDVAEKALQAMKAIPGTIRARLLY
B2: serA222: E. coli PGD variant with replacement T372V (protein, UniProt P0A9T0 2-410, looked up, variant T372V)
D-3-phosphoglycerate …: B1 D-3-phosphoglycerate … with N348G, T371V
B3: serA40: E. coli PGD variant, mutation at codon 349 printed G349 (G349D per Table 3) (protein, UniProt P0A9T0 2-410, looked up, variant G349D)
D-3-phosphoglycerate …: B1 D-3-phosphoglycerate … with N348D
B4: serA45: E. coli PGD variant with replacement G349I (protein, UniProt P0A9T0 2-410, looked up, variant G349I)
D-3-phosphoglycerate …: B1 D-3-phosphoglycerate … with N348I
B5: serA218: E. coli PGD variant with replacement T372N (protein, UniProt P0A9T0 2-410, looked up, variant T372N)
D-3-phosphoglycerate …: B1 D-3-phosphoglycerate … with N348G, T371N
B6: serA226: E. coli PGD variant with replacement T372L (protein, UniProt P0A9T0 2-410, looked up, variant T372L)
D-3-phosphoglycerate …: B1 D-3-phosphoglycerate … with N348G, T371L
B7: serA221: E. coli PGD variant with replacement T372Q (protein, UniProt P0A9T0 2-410, looked up, variant T372Q)
D-3-phosphoglycerate …: B1 D-3-phosphoglycerate … with N348G, T371Q
B8: serA212: E. coli PGD variant with replacement T372F (protein, UniProt P0A9T0 2-410, looked up, variant T372F)
D-3-phosphoglycerate …: B1 D-3-phosphoglycerate … with N348G, T371F
B9: serA46: E. coli PGD variant with replacement G349M (protein, UniProt P0A9T0 2-410, looked up, variant G349M)
D-3-phosphoglycerate …: B1 D-3-phosphoglycerate … with N348M
B10: serA214: E. coli PGD variant with replacement T372A (protein, UniProt P0A9T0 2-410, looked up, variant T372A)
D-3-phosphoglycerate …: B1 D-3-phosphoglycerate … with N348G, T371A
B11: serA445: E. coli PGD variant with replacement G349C (protein, UniProt P0A9T0 2-410, looked up, variant G349C)
D-3-phosphoglycerate …: B1 D-3-phosphoglycerate … with N348C
B12: serA220: E. coli PGD variant with replacement T372S (protein, UniProt P0A9T0 2-410, looked up, variant T372S)
D-3-phosphoglycerate …: B1 D-3-phosphoglycerate … with N348G, T371S
B13: serA47: E. coli PGD variant with replacement G349E (protein, UniProt P0A9T0 2-410, looked up, variant G349E)
D-3-phosphoglycerate …: B1 D-3-phosphoglycerate … with N348E
B14: serA208: E. coli PGD variant with replacement T372H (protein, UniProt P0A9T0 2-410, looked up, variant T372H)
D-3-phosphoglycerate …: B1 D-3-phosphoglycerate … with N348G, T371H
B15: serA210: E. coli PGD variant with replacement T372W (protein, UniProt P0A9T0 2-410, looked up, variant T372W)
D-3-phosphoglycerate …: B1 D-3-phosphoglycerate … with N348G, T371W
B16: serA228: E. coli PGD variant with replacement T372M (protein, UniProt P0A9T0 2-410, looked up, variant T372M)
D-3-phosphoglycerate …: B1 D-3-phosphoglycerate … with N348G, T371M
B17: serA422: E. coli PGD variant with replacement G349Q (protein, UniProt P0A9T0 2-410, looked up, variant G349Q)
D-3-phosphoglycerate …: B1 D-3-phosphoglycerate … with N348Q
B18: serA: Escherichia coli wild-type 3-phosphoglycerate dehydrogenase (PGD, SEQ ID NO: 2) encoded by the serA gene (protein, listed as Escherichia coli)
chain: MAKVSLEKDKIKFLLVEGVHQKALESLRAAGYTNIEFHKGALDDEQLKESIRDAHFIGLRSRTHLTEDVINAAEKLVAIGCFCIGTNQVDLDAAAKRGIPVFNAPFSNTRSVAELVIGELLLLLRGVPEANAKAHRGVWNKLAAGSFEARGKKLGIIGYGHIGTQLGILAESLGMYVYFYDIENKLPLGNATQVQHLSDLLNMSDVVSLHVPENPSTKNMMGAKEISLMKPGSLLINASRGTVVDIPALCDALASKHLAGAAIDVFPTEPATNSDPFTSPLCEFDNVLLTPHIGGSTQEAQENIGLEVAGKLIKYSDNGSTLSAVNFPEVSLPLHGGRRLMHIHENRPGVLTALNKIFAEQGVNIAAQYLQTSAQMGYVVIDIEADEDVAEKALQAMKAIPGTIRARLLY

Positions count from the first letter of the chain named. Numbers in names are those of the source.

In the first assay the test system is 3-phosphoglycerate dehydrogenase (PGD). Description: PGD enzyme activity in crude extracts (McKitrick and Pizer test). The assay is classed as biochemical, Escherichia coli. Conditions: crude extract of strain expressing plasmid-encoded serA allele; backward reaction, NADH oxidation at 340 nm. From the text: (§1) For example, the PGD activity can be determined in analogy with the method described by McKitrick and Pizer (1980, J. Bacteriol. 141:235-245). The backward reaction is used to measure the enzyme activity in an assay sample which contains phosphohydroxypyruvate and NADH/H^+. The reaction is started by adding enzyme and is monitored in a spectrophotometer by way of the decrease in extinction at 340 nm which is caused by oxidation of the NADH/H^+.
(§2) At an optical density of 1.0, serA expression was in each case induced by adding 0.4 mM […] and the culture was incubated for a further 3 hours. The cells were subsequently harvested by centrifugation, washed and resuspended in 2 ml of buffer (100 mM K-phosphate, pH 7.0; 10 mM MgCl2; 1 mM dithiothreitol). The cells were disrupted using a French press (Spectronic Instruments, Inc. Rochester, N.Y., USA) at a pressure of 18 000 psi. The crude extracts were clarified by centrifugation at 30 000 g and PGD activity was determined using the McKitrick and Pizer test (1980, J. Bacteriol. 141:235-245).
The molecule B1 showed an Activity of 0.05 units/mg.

On to B2, for which the Activity was determined as 0.05 units/mg.

B3 returned an Activity of 0.05 units/mg.

On to B4, for which the Activity is on record as 0.05 units/mg.

With B5, the Activity was 0.05 units/mg.

Molecule B6 yielded an Activity of 0.04 units/mg.

Consider B7, for which the Activity worked out at 0.05 units/mg.

B8 registered an Activity of 0.05 units/mg.

Molecule B9 gave an Activity of 0.05 units/mg.

As for B10, the Activity amounted to 0.04 units/mg.

Turning to B11, the Activity was determined as 0.04 units/mg.

For B12, the Activity is 0.05 units/mg.

B13 yielded an Activity of 0.05 units/mg.

B14: the Activity is recorded as 0.05 units/mg.

For B15, the Activity stood at 0.04 units/mg.

As for B16, the Activity was 0.03 units/mg.

As to B17, the Activity is on record as 0.05 units/mg.

The molecule B18 showed an Activity of 0.05 units/mg.

In another assay the target is 3-phosphoglycerate dehydrogenase (PGD). Description: Inhibition of PGD activity by L-serine, inhibitor constant Ki. The assay is classed as biochemical, Escherichia coli. Conditions: Ki = inhibitor concentration at which activity is 50% of activity without inhibitor.
Description: as §1, §2
Regarding B1, the Ki came to 15 mM.

Consider B2, for which the Ki amounted to 40 mM.

In the case of B3, affinity was put at a Ki of 25 mM.

Turning to B4, the Ki worked out at 5 mM.

On to B5, for which affinity was put at a Ki of 100 mM.

In turn, B6 gave an inhibitory constant (Ki) of 40 mM.

In the case of B7, the Ki amounted to 100 mM.

For B8, the Ki was found to be 60 mM.

As for B9, the affinity, expressed as Ki, was 1 mM.

B10: the Ki came out at 10 mM.

B11 gave an inhibition constant Ki of 5 mM.

Take B12: the Ki worked out at 1 mM.

In turn, B13 returned a Ki of 20 mM.

Turning to B14, the affinity corresponds to a Ki of 80 mM.

B15 had a Ki of 60 mM.

As for B16, the Ki was found to be 60 mM.

On to B17, for which the Ki came out at 15 mM.

In the case of B18, the Ki was < 0.1 mM.

By Ki is commonly meant a dissociation constant, usually derived from enzyme kinetics or from competition with a known ligand. A high value points to lower affinity.
